The values below come from US20120324602A1.

In assay [1] the target is BSH (Arabidopsis thaliana). Briefly: TAP-MS, N-terminal GS tag.
Assay [2] deals with CHR12 (Arabidopsis thaliana). Put plainly: TAP-MS, N-terminal GS tag.
In assay [3] the target is CKA2 (casein kinase II alpha chain 2) (Arabidopsis thaliana). Briefly: TAP-MS, N-terminal GS tag.
Assay [4] has as its target CRU1 (CRUCIFERINA) (Arabidopsis thaliana). Briefly: TAP-MS, N-terminal GS tag.
The target of assay [5] is CRU3 (CRUCIFERIN 3) (Arabidopsis thaliana). Put plainly: TAP-MS, N-terminal GS tag.
The target in assay [6] is DNA-binding bromodomain-containing protein (AT1G20670) (Arabidopsis thaliana). Put plainly: TAP-MS, N-terminal GS tag.
In assay [7] the target is DNA-binding bromodomain-containing protein, similar to At1g20670 (AT5G55040) (Arabidopsis thaliana). Put plainly: TAP-MS, N-terminal GS tag.
Assay [8] deals with LFR (armadillo-repeat protein) (Arabidopsis thaliana). Put plainly: TAP-MS, N-terminal GS tag.
In assay [9] the target is RD21 (RESPONSIVE TO …ON 21) (Arabidopsis thaliana). Briefly: TAP-MS, N-terminal GS tag.
Assay [10] deals with SNF2 protein (BRM) (Arabidopsis thaliana). Briefly: TAP-MS, N-terminal GS tag.
Assay [11] has as its target SWI3A (Arabidopsis thaliana). Briefly: TAP-MS, N-terminal GS tag.
Assay [12] addresses SWI3B (Arabidopsis thaliana). Put plainly: TAP-MS, N-terminal GS tag.
In assay [13] the target is SWI3D (Arabidopsis thaliana). Put plainly: TAP-MS, N-terminal GS tag.
Assay [14] addresses T1, SWIRM domain-containing protein (SWI3C) (Arabidopsis thaliana).
T1 sequence (Q9XI07 1-807, looked up): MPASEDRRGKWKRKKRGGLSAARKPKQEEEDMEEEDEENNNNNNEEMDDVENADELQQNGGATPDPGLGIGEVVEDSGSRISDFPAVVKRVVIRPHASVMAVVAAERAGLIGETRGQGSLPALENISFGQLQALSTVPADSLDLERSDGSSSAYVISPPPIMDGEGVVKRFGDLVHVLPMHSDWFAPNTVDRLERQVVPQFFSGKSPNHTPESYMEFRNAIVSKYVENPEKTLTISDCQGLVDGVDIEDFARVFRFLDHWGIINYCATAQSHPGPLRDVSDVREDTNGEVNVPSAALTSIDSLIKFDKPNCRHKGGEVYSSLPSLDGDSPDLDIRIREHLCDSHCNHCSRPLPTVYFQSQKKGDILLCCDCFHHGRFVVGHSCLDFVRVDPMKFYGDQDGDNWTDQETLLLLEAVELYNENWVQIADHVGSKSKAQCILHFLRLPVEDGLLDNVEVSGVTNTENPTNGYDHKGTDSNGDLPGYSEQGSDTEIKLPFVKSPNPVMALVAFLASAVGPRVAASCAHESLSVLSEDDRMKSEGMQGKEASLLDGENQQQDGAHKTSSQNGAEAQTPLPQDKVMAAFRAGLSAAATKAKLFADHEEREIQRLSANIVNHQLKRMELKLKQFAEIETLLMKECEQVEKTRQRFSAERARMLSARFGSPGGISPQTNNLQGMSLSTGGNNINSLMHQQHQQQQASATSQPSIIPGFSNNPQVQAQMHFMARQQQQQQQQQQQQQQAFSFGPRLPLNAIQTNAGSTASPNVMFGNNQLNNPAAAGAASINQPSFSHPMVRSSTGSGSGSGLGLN
Put plainly: TAP-MS, N-terminal GS tag.

Assay [15] addresses T2, actin-related protein 4 (ARP4) (Arabidopsis thaliana).
T2 sequence (Q84M92 1-441, looked up): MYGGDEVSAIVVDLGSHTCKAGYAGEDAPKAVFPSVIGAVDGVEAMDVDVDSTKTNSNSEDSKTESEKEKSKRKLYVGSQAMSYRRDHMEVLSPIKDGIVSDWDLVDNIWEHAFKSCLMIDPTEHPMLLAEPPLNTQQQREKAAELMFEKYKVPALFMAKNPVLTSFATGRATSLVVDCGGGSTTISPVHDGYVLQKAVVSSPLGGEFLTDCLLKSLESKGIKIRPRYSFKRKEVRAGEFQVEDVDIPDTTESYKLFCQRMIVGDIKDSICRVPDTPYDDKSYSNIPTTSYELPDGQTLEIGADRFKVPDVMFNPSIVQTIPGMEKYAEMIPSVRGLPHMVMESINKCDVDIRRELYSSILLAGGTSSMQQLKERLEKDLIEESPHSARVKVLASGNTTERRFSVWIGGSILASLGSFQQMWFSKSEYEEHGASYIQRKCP
Briefly: TAP-MS, N-terminal GS tag.

The target in assay [16] is T3, actin-related protein 7 (ARP7) (Arabidopsis thaliana).
T3 sequence (Q8L4Y5 1-363, looked up): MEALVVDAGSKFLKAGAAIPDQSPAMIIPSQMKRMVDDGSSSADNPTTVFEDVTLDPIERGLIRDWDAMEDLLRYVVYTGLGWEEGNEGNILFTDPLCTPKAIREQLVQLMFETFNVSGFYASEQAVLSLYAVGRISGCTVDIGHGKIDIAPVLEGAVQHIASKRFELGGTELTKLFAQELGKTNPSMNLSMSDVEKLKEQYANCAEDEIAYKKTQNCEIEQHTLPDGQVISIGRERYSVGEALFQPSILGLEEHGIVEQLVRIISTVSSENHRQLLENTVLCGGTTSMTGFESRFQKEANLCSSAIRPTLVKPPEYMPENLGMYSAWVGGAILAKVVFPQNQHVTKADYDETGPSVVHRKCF
Briefly: TAP-MS, N-terminal GS tag.

The target in assay [17] is electron carrier (AT1G32730) (Arabidopsis thaliana). Put plainly: TAP-MS, N-terminal GS tag.
For assay [18], the target named is expressed protein, similar to At3g03460 (AT5G17510) (Arabidopsis thaliana). Briefly: TAP-MS, N-terminal GS tag.
Assay [19] has as its target expressed protein, similar to At4g22320 (AT5G55210) (Arabidopsis thaliana). Briefly: TAP-MS, N-terminal GS tag.
Assay [20] has as its target transcription factor (AT3G18380) (Arabidopsis thaliana). Briefly: TAP-MS, N-terminal GS tag.
Assay [21] deals with unknown protein (AT1G06500) (Arabidopsis thaliana). Put plainly: TAP-MS, N-terminal GS tag.
Assay [22] deals with unknown, similar to At5g55210 (AT4G22320) (Arabidopsis thaliana). Briefly: TAP-MS, N-terminal GS tag.
Assay [23] addresses BSH (Arabidopsis thaliana). Put plainly: TAP-MS, C-terminal GS tag.
Assay [24] deals with DNA-binding bromodomain-containing protein (AT1G20670) (Arabidopsis thaliana). Briefly: TAP-MS, C-terminal GS tag.
Assay [25] addresses DNA-binding bromodomain-containing protein (AT1G58025) (Arabidopsis thaliana). Briefly: TAP-MS, C-terminal GS tag.
Assay [26] has as its target DNA-binding bromodomain-containing protein, similar to At1g20670 (AT5G55040) (Arabidopsis thaliana). Put plainly: TAP-MS, C-terminal GS tag.
The target in assay [27] is LFR (armadillo-repeat protein) (Arabidopsis thaliana). Put plainly: TAP-MS, C-terminal GS tag.
In assay [28] the target is RD21 (RESPONSIVE TO …ON 21) (Arabidopsis thaliana). Put plainly: TAP-MS, C-terminal GS tag.
The target in assay [29] is SNF2 protein (BRM) (Arabidopsis thaliana). Briefly: TAP-MS, C-terminal GS tag.
In assay [30] the target is SWI3A (Arabidopsis thaliana). Put plainly: TAP-MS, C-terminal GS tag.
The target of assay [31] is SWI3B (Arabidopsis thaliana). Put plainly: TAP-MS, C-terminal GS tag.
Assay [32] deals with SWI3D (Arabidopsis thaliana). Put plainly: TAP-MS, C-terminal GS tag.
For assay [33], the target named is T1, SWIRM domain-containing protein (SWI3C) (Arabidopsis thaliana). Briefly: TAP-MS, C-terminal GS tag.
For assay [34], the target named is T2, actin-related protein 4 (ARP4) (Arabidopsis thaliana). Put plainly: TAP-MS, C-terminal GS tag.
Assay [35] concerns the target T3, actin-related protein 7 (ARP7) (Arabidopsis thaliana). Put plainly: TAP-MS, C-terminal GS tag.
In assay [36] the target is electron carrier (AT1G32730) (Arabidopsis thaliana). Briefly: TAP-MS, C-terminal GS tag.
Assay [37] addresses expressed protein, similar to At3g03460 (AT5G17510) (Arabidopsis thaliana). Put plainly: TAP-MS, C-terminal GS tag.
Assay [38] addresses expressed protein, similar to At4g22320 (AT5G55210) (Arabidopsis thaliana). Briefly: TAP-MS, C-terminal GS tag.
Assay [39] has as its target isocitrate dehydrogenase (AT5G03290) (Arabidopsis thaliana). Briefly: TAP-MS, C-terminal GS tag.
The target in assay [40] is unknown protein (AT1G06500) (Arabidopsis thaliana). Put plainly: TAP-MS, C-terminal GS tag.

On to GS-Swp73B, for which the N-GS (times co-purified) in assay [1] came out at 2; in assay [2], 1; in assay [3] it was 1; in [4], 1; in assay [5] it was 1; in assay [6], 3. Moreover, the N-GS (times co-purified) worked out at 1 in assay [7]; 2 in assay [8]; 2 in assay [9]; 2 in [10]; 3 in assay [11]; 2 in [12]. In addition, the N-GS (times co-purified) was 3 in assay [13]; 3 in [14]; 2 in [15]; 2 in assay [16]; 2 in assay [17]; 2 in assay [18]. Moreover, the N-GS (times co-purified) in [19] was found to be 2; in [20], 2; in assay [21], 2; in assay [22], 1.
As for Swp73B-GS, the C-GS (times co-purified) in assay [23] amounted to 2; in assay [24], 2; in [25], 1; in assay [26], 1; in assay [27] it was 2; in assay [28], 2. For the same substance, the C-GS (times co-purified) in assay [29] came out at 1; in assay [30], 2; in [31], 2; in [32] it was 1; in assay [33], 1; in assay [34], 1. In addition, the C-GS (times co-purified) in [35] amounted to 2; in assay [36], 2; in assay [37], 2; in assay [38], 2; in assay [39] it was 1; in assay [40], 1.
